assay: soluble on expression in E. coli; label from the status in PepcDB or PDB records

| Sequence | soluble on expression in E. coli |
| --- | --- |
| MGSDKIHHHHHHMKIGFVGAGVGTLHAALLLTKRYPEVEITIFEKESRAGGRLASVDFETGGRIDQGPTIVLMPGKLQEQLREAGLEGVELERIDPLYDLHFDDGTIVTKQADVVDQTIAIERQFGEGRGFQEFMQQKAKDYDVSVSKFLERTYSRKRDLLHPDMLAPLVKMHAMETAHDHLKRFFKSKHLRMAYSFPTFYIGGNPYTTPSIYGLIPYREQEEGVWYVKGGYFSLAERMYEALVERGVTFKFNQPVDRVLIQQGQTKGLVAAGQEYVYDTVVLNGEFPLMEYLVEGKQPKKYVPSGGTLLLYFKIDGKVDLPVHRFLMPSDLKPLMTSIFKKNELPENPAVYLFNPSKIDDALTASGTSVVYALVPSPRGFDQANYEAHGFIDQILDKIEQHLPGFQSQVTEMKIRTPQDAQDFGLYEGGSFGIAPTIRQSAALKTQAKPYADIERLYAVGASVHPCGGVPIVMMGATLLVNRMEQEMRWKNGYSDERISSM | not soluble |
| MNYATTPTAFVESKLNSMPGDALGYLRRLDQRWQALCQGDLPPIAEVAQKVNTNLGEADFDAVICGGTLGILLAASLQIRGWQVVVIERGKLQGRAQEWNISRQELQTFVELELLTSEELETAIASEYNPGRIAFHGGQEFWIKNVLNVGIDPIYLLEKLKQKFLQAGGKLLEHSAFQKAIIHSDGVAISYQHDGENQVERKLTSRLLIDAMGHGSPLVNQARQGEIPDGVCLVVGSCAQGYSDNETGDLIATTTGITNHCQYFWEAFPARDGRTTYLFTYVDVHPERISLEFFFQEYFRLLPEYQKINLDQLQWQRFLSGFFPAYKSSPLHFSWGRVLAVGDSAGSQSPVSFGGFGAMVRHLKRLTNAIGEALAGDYLAAEDLALLQPYQPNIGVTWLFQQTMGVKVGQTADPEQINRLMNAVFAVMDRQGQEVMEPFLQDVIQWSGLTQTLPRVNPLIVLPLLPQIGLPALMEWLGHYANLAGYSLTYPLAKNLLFTNPSFEQKRRLEAWYYGSGYDFHH | not soluble |
| MGSDKIHHHHHHMSRALAKPEIITELSFEEIRAAVLTHLKELLPEYTFLESDPAVKVIEAFSYRELLLRQRINEAARNNILDFATGESLDALGNWHGIARIEGESDERYRERVQLHARGGNGSGTEPYYKLIALTADSRVKDAIIYRKGKDPTIYVAIFGNNEEGTASEDLLQTVSQALHRKNIIMTNDTIIVHAAVKKVLDLEADVWLLPEASLKILTTMEANLRTAWKQEQAIGRELSLSWWVSKLMIPGVQKVIAIAPTKDSVVCDEEILSIGKITLNFKGRAR | not soluble |
| NNADYIEMKVPAQPEYVGIIRLTLSGVASRMGYTYDEIEDLKIAVSEACTNAVQHAYKEDKNGEVSIRFGVFEDRLEVIVADEGDSFDFDQKQQDLGPYTPSHTVDQLSEGGLGLYLMETLMDEVRVQNHSGVTVAMTKYLNGERVDHDTTIKNYETN | not soluble |
| AMSKIICLTAGHSNTDPGAVNGSDREADLAQDMRNIVASILRNDYGLTVKTDGTGKGNMPLRDAVKLIRGSDVAIEFHTNAAANKTATGIEALSTPKNKRWCQVLGKAVAKKTGWKLRGEDGFKPDNAGQHSRLAYAQAGGIVFEPFFISNDTDLALFKTTKWGICRAIADAIAMELGAAKV | soluble |
| MGSDKIHHHHHHMHEAVARMLAKYEPKSVDDSVRALREIIQEVALLGLWRSKFFEHAAFYGGTALRILYGLDRFSENLDFSLLEPSPDFNLARYTASLEEELSAFGFNVRVEMVGKAVESAVQSAFLKANTRNELLVIETGGELAGQVAAGQVLKVKIEVDTDPPTGFTTSTRYLLQPIPFAVRSYSLPDLFAGKMHALLFRRWKNRVKGRDWYDFVWYAANHPQLNLAHLEQRMRQTGHWSGDLPLSAAAFRELLSDSIDRLDVDQARNDVAPFVKDQQALALWSHDFFRDVARRVQTDEG | not soluble |
| MGSDKIHHHHHHMKWSEYANLAQQSLEKFYLADTKEQFLNNFYPTENPEEDNKVFNYWWLAHLVEVRLDAYLRTKKQADLEVAEKTYLHNKNRNGGTLIHDFYDDMLWNALAAYRLYKATGKSIYLEDAQLVWQDLVDTGWNDIMGGGFAWRRPQMYYKNTPVNAPFIILSCWLYNELNETKYLEWAMKTYEWQTKVLVREDGFVEDGINRLEDGTIDYEWKFTYNQGVYIGANLELYRITKEAKYLDTANKTAAISLKELTEDGIFKDEGNGGDEGLFKGIFYRYFTDLIEETANKTYRDFVLNSCQILVENAKLDGYLLMGMNWKEKPSGKIPYSAELSGMIALEMAAKLE | not soluble |
| MGSDKIHHHHHHAGCKTSKVVKTTPVEPAYLSSKLQLTVPNKNGSMTVSGSMKMKSGERIQLSVLMPVFRSEVMRMEVTPDEVLLIDRMNKRYVRATRDELKGILPENADFDRLEKLLFKASLPGEKKELTGRELGIPSLEKAKVRLSDFSTAEFELIPTEVSSRYTQVALEDLLKMLMKL | not soluble |
| MGSDKIHHHHHHVPQRTSFNGSTRPAWKNTTALIRNPKIASILATGGTGMVHAALQSGNPSMGVGAGNGAVYIDHTAFLDRAVEDILLSKRFDNSMVCATENSAVVEAPIYDKWLQMIQDKGAYLVPKKDYQKLADFVFNDKRGVNGPVAGMSARWICEHAGVTLSEGKDVLLFELDPKNIGEKLSSEKLSPLLSVYKAKDREDGIRIVKALLDYQGAGHNAAIQIGSQNDPFIDEYGKAVQASRVLVNQPDALGGIGDIYSDGLRPSLILGTGSWGKNSLSHNLSTSDLLNIKTIAKQRNRPQWIRLPEKIFTKKTSLPIFQMKMSRKSAGPLSSLTRAWSSSTSLTRSMNSWL | not soluble |
| MAQVAIFKEIFDQVRKDLNCELFYSELKRHNVSHYIYYLATDNIHIVLENDNTVLIKGLKKVVNVKFSRNTHLIETSYDRLKSREITFQQYRENLAKAGVFRWITNIHEHKRYYYTFDNSLLFTESIQNTTQIFPR | not soluble |
| MAIKLIAIDMDGTLLLPDHTISPAVKNAIAAARARGVNVVLTTGRPYAGVHNYLKELHMEQPGDYCITYNGALVQKAADGSTVAQTALSYDDYRFLEKLSREVGSHFHALDRTTLYTANRDISYYTVHESFVATIPLVFCEAEKMDPNTQFLKVMMIDEPAILDQAIARIPQEVKEKYTVLKSAPYFLEILDKRVNKGTGVKSLADVLGIKPEEIMAIGDQENDIAMIEYAGVGVAMDNAIPSVKEVANFVTKSNLEDGVAFAIEKYVLN | not soluble |
| AIAFQPVTQKRLTNVSVVRMRKGGKRFEIACYPNMVMAYREGHVRDLDEVIQVEDVFENVSKGKLAANADLERCFGTRDRHAVLLQILLHGDLQVSDRERQYQSTRKLHEIASVVAAKTISRETKKPLPVGLIEKALREIHFAVQPNRPAKAQALEVIPLLRAQSGLDLERARLRLRIHVPSQRDAKAVKARLEPLQQGETDGTHSSSRSDSVRMKDGSAAVESESEEWLPGGALLWTVQADPGAFREIEEIVQRETNQQGIVEVASLRVLDDEDESILS | soluble |
| MSLAPIAQAQHELSISRLIDAPPAKVFRAWTEPQWLMQWWGPHGMTTPECEMQLWAGGLFRTLMRAPDGCEYPNQGVFLEIAAPRRLVFTDAFGPGWVPSDKAFMTAVISFDEEQGKTRYTARAWHWNATDCRAHEEMGFHQGWGESLDRLVEVVTQRMPDLEHHHHHH | soluble |
| MNSENSKWQAIQESTFALARKCEEFDSDGITVYLFSKTFQRYDYVNSAKVKQLFAENSPSETTNLVGVLQDAINSYFQRKSLGKTKPAGEVILVITDGAPVDSQAVCEVIIKATHLVESANELRISIIQVGSDSHATKFLKALDDHLQSVGAKFDICDTITLDELEITNLSDVLMKAITDLEHHHHHH | not soluble |
| MDYEKTLLMPKTDFPMRGGLPNKEPQIQEKWDAEDQYHKALEKNKGNETFILHDGPPYANGNLHMGHALNKILKDFIVRYKTMQGFYAPYVPGWDTHGLPIEQALTKKGVDRKKMSTAEFREKCKEFALEQIELQKKDFRRLGVRGDFNDPYITLKPEYEAAQIRIFGEMADKGLIYKGKKPVYWSPSSESSLAEAEIEYHDKRSASIYVAFNVKDDKGVVDADAKFIIWTTTPWTIPSNVAITVHPELKYGQYNVNGEKYIIAEALSDAVAEALDWDKASIKLEKEYTGKELEWVVAQHPFLDRESLVINGDHVTTDAGTGCVHTAPGHGEDDYIVGQQYELPVISPIDDKGVFTEEGGQFEGMFYDKANKAVTDLLTEKGALLKLDFITHSYPHDWRTKKPVIFRATPQWFASISKVRQDILDAIENTNFKVNWGKTRIYNMVRDRGEWVISRQRVWGVPLPVFYAENGEIIMTKETVNHVADLFAEHGSNIWFEREAKDLLPEGFTHPGSPNGTFTKETDIMDVWFDSGSSHRGVLETRPELSFPADMYLEGSDQYRGWFNSSITTSVATRGVSPYKFLLSHGFVMDGEGKKMSKSLGNVIVPDQVVKQKGADIARLWVSSTDYLADVRISDEILKQTSDDYRKIRNTLRFMLGNINDFNPDTDSIPESELLEVDRYLLNRLREFTASTINNYENFDYLNIYQEVQNFINVELSNFYLDYGKDILYIEQRDSHIRRSMQTVLYQILVDMTKLLAPILVHTAEEVWSHTPHVKEESVHLADMPKVVEVDQALLDKWRTFMNLRDDVNRALETARNEKVIGKSLEAKVTIASNDKFNASEFLTSFDALHQLFIVSQVKVVDKLDDQATAYEHGDIVIEHADGEKCERCWNYSEDLGAVDELTHLCPRCQQVVKSLV | soluble |
| MSLRKIHVTIIAPYEGLAETFKRIQNEFEHLDMTIHIADLQQSLPLLTTEVQAQTDIFISRGGTAKVIRTRTEKPVVEVPISGFDILRMILLIQAEREQTEIIAFENISLSFTKVTELIETDIPITAVMKEEEVEPAIIAAKAAGRKMIVGDAITTSLANKHGLEGILITSGEESVRTALEQADLLGRKMNDSKQEGHHHHHH | soluble |
| MSLKPWLLMMLTTLLVGCGGTPQPKVSFYLLPNNPELSEHIQPKTLPLLVVQPVELAAYLDTQGIVYRQSETQVIQARQNQWAQRLSPQLTQRITNDLRRKQSRYWPAPLNASSIQQEHWKLQVRLQRFNGVYTGNAEVAGNWELLNPKGESMLNQEFSFQVPLKDTGYPALVEALSAGVDQLSTQIETQLVTREGHHHHHH | soluble |
| MRYLTAGESHGPRLTAIIEGIPAGLPLTAEDINEDLRRRQGGYGRGGRMKIENDQVVFTSGVRHGKTTGAPITMDVINKDHQKWLDIMSAEDIEDRLKSKRKITHPRPGHADLVGGIKYRFDDLRNSLERSSARETTMRVAVGAVAKRLLAELDMEIANHVVVFGGKEIDVPENLTVAEIKQRAAQSEVSIVNQEREQEIKDYIDQIKRDGDTIGGVVETVVGGVPVGLGSYVQWDRKLDARLAQAVVSINAFKGVEFGLGFEAGYRKGSQVMDEILWSKEDGYTRRTNNLGGFEGGMTNGQPIVVRGVMKPIPTLYKPLMSVDIETHEPYKATVERSDPTALPAAGMVMEAVVATVLAQEILEKFSSDNLEELKEAVAKHRDYTKNY | soluble |
| MAHHHHHHMKLEFAHEAIVSRRRLSKFGYSLQTEKWTLHVNKKKRERKRKDSKKREEGEVIITKNANEREIKTVEESKHHTTCRLWFANVAACMYFLALATEELNTILQTEVFSKQRLIYWQMYHMPCSHISCMSARIPPLPPFRLYVTLKPKMRGSIFANISVGRMVGYEAAWSSTYSKRKR | not soluble |
| MSLTPATRNNDSAVAVADAFDDTGDGPPTAARFAALAACWRQPDDDLQAALAAETDTTVDAQSLRAEYTRLFVGPGPSQSPPYESVYRDGERDADLGPVYGSSTQAVARWYSEYGLQPAASESAPPDHLATELEFAAYLREHEGAETLEQFLTEHPRNWVESFARRVRDADPKPFYRTLLNVTVDTLARADTPLEGHHHHHH | not soluble |

Source: the DeepSol protein solubility set
